Values of other authors, collected in paper PMC6899468.

Target: neuropilin-1 (Homo sapiens) (UniProt O14786)
UniProt O14786, sequence (O14786 22-856): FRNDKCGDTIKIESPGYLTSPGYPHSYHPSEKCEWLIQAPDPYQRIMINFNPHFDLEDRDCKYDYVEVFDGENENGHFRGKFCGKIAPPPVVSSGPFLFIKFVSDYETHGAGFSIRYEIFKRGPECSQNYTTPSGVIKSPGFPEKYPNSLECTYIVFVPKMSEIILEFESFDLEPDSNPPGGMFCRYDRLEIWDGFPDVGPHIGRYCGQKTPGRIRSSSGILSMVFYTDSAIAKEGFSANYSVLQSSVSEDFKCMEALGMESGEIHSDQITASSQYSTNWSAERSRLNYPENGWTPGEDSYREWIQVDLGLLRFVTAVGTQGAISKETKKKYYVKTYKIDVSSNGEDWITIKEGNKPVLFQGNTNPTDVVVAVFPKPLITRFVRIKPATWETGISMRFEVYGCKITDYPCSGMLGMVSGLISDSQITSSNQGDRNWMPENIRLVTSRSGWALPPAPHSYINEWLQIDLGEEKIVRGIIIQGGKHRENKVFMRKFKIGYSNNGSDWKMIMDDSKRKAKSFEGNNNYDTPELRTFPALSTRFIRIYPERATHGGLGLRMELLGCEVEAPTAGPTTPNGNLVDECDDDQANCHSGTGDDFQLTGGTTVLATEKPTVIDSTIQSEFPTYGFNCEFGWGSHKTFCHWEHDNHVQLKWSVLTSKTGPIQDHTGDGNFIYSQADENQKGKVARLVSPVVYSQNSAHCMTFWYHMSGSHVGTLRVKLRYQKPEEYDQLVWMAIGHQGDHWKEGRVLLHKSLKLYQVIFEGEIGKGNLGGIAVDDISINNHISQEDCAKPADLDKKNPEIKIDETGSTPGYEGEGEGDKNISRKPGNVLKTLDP

chromogranin A fragment hCgA1-373 1-373 (from UniProt P10645)
Kd: 3.49 nM
